Reference: patent US20180185450A1 (Sanofi, published 2018)
Numbered stars: 1 amine (or outer) side, 2 acyl side, 3 side chain; on linkers, the order of the positions; unused ones are H or OH. Square brackets hold non-standard residues; d marks the D form. Side chains are listed from the residue outwards. Ends that are not written are not given here. γGlu = O=C(O)[C@H](CCC(=O)[*:2])N[*:1]; X70 = not defined here; x53 = not defined here; x70 = not defined here; x76 = not defined here; Aib = CC(C)(N)C(=O)O

Legend:
human glucagon receptor = human glucagon receptor (human, UniProt P47871 26-477); assay: cell-based or functional assay
Chain of human glucagon receptor (P47871 26-477): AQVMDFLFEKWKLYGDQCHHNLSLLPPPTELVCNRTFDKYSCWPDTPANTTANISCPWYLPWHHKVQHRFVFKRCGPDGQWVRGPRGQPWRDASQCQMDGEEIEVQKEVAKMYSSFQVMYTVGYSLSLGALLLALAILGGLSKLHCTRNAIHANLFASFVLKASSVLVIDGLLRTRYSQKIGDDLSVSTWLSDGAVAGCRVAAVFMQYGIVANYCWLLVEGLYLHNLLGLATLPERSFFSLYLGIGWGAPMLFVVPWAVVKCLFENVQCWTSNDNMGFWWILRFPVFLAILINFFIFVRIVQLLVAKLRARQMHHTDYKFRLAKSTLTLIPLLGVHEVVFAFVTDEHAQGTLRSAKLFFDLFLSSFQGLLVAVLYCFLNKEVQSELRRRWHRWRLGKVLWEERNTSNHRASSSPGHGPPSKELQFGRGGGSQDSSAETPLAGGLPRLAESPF

human GLP-1 receptor = human GLP-1 receptor (human, UniProt P43220 24-463); assay: cell-based or functional assay

Binder	EC50 hGlucagon-R (cAMP) (human glucagon receptor) [pM]	EC50 hGLP-1R (cAMP) (human GLP-1 receptor) [pM]
H[Aib]QGTFTSDLSKQK([γGlu-X70])DEQRAKEFIEWLKAGGPSSGAPPPS-NH2 (reading uncertain) [SEQ ID NO: 152]	2.3	3.2
H[Aib]QGTFTSDLSKQK([γGlu-X70])DEQRAKDFIEWLKSGGPSSGAPPPS-NH2 (reading uncertain) [SEQ ID NO: 175]	3.1	2.5
H[Aib]QGTFTSDLSKQK([γGlu-X70])DEQRAKEFIEWLKSGGPSSGAPPPS-NH2 (reading uncertain) [SEQ ID NO: 174]	1.9	2.6
H[Aib]QGTFTSDLSKQK([γGlu-X70])DSRRAQDFIEWLKAGGPSSGAPPPS-NH2 (reading uncertain) [SEQ ID NO: 162]	2.4	3.1
H[Aib]QGTFTSDLSKQK([γGlu-γGlu-x53])DEQRAKEFIEWLKSGGPSSGAPPPS-NH2 (reading uncertain) [SEQ ID NO: 207]	1.2	1.1
H[Aib]HGTFTSDLSKQK([γGlu-γGlu-x53])DEEAARLFIEWLKAGGPSSGAPPPS-NH2 (reading uncertain) [SEQ ID NO: 227]	1.1	1.4
H[Aib]QGTFTSDLSKQK([γGlu-x76])ESRAAQDFIEWLKAGGPSSGAPPPS-NH2 (reading uncertain) [SEQ ID NO: 202]	6.9	26.2
HSHGTFTSDLSKQK([γGlu-x53])ESRRAQDFIEWLKAGGPSSGAPPPS-NH2 (reading uncertain) [SEQ ID NO: 208]	1.3	2
HXQGTFTSDLSKQKDEQRAKDFIEWLKAXGPSSGAPPPS (Aib at 2; K(γE-x70) at 14; dAla at 29; C-terminal NH2) [SEQ ID NO: 199]	7.2	10.1
HXQGTFTSDLSKQKDKRRAQLFIEWLKAXGPSSGAPPPS (Aib at 2; K(γE-x70) at 14; dAla at 29; C-terminal NH2) [SEQ ID NO: 210]	3	6.7
HXQGTFTSDLSKQKDEQAAKLFIEWLKAXGPSSGAPPPS (Aib at 2; K(γE-x76) at 14; dAla at 29; C-terminal NH2) [SEQ ID NO: 201]	29.6	22.7
HXQGTFTSDLSKQKDEQRAKLFIEWLKAXGPSSGAPPPS (Aib at 2; K(γE-x70) at 14; dAla at 29; C-terminal NH2) [SEQ ID NO: 200]	4.4	4.6
HXHGTFTSDLSKQKEEEAARLFIEWLKAGGPSSGAPPPS (dSer at 2; K(γE-X70) at 14; C-terminal NH2) [SEQ ID NO: 219]	3.7	2.1
HXHGTFTSDLSKQKDEEAARLFIEWLKAGGPSSGAPPPS (dSer at 2; K(γE-X70) at 14; C-terminal NH2) [SEQ ID NO: 220]	2.3	2
H[Aib]QGTFTSDLSKQK([γGlu-x70])DSRRAQLFIEWLKAGGPSSGAPPPS-NH2 (reading uncertain) [SEQ ID NO: 198]	2.4	8.2
H[Aib]QGTFTSDLSKQK([γGlu-x70])DEQKAKLFIEWLKSGGPSSGAPPPS-NH2 (reading uncertain) [SEQ ID NO: 206]	12.5	3.2
H[Aib]QGTFTSDLSKQK([γGlu-x53])DSQAAQDFIEWLKAGGPSSGAPPPS-NH2 (reading uncertain) [SEQ ID NO: 155]	25.1	2.5
H[Aib]QGTFTSDLSKQK([γGlu-γGlu-x53])DEEAARLFIEWLKAGGPSSGAPPPS-NH2 (reading uncertain) [SEQ ID NO: 226]	19.1	1.4
H[Aib]QGTFTSDLSKQK([γGlu-X70])DSQAAQDFIEWLKAGGPSSGAPPPS-NH2 (reading uncertain) [SEQ ID NO: 156]	12.5	2.9
H[Aib]HGTFTSDLSKQK([γGlu-X70])EEEAARLFIEWLKAGGPSSGAPPPS-NH2 (reading uncertain) [SEQ ID NO: 217]	2.1	4.3

Binder	EC50 hGlucagon-R (cAMP) (human glucagon receptor) [pM]	EC50 hGLP-1R (cAMP) (human GLP-1 receptor) [pM]
HXQGTFTSDLSKQKESRRAQLFIEWLKAXGPSSGAPPPS (Aib at 2; K(γE-x70) at 14; dAla at 29; C-terminal NH2) [SEQ ID NO: 205]	5.2	12.3
HXQGTFTSDLSKQKDSKAAQDFIEWLKAGGPSSGAPPPS (dSer at 2; K(γE-X95) at 14; C-terminal NH2) [SEQ ID NO: 142]	2.1	4.1
HXQGTFTSDLSKQKEEEAAQDFIEWLKAGGPSSGAPPPS (dSer at 2; K(γE-x53) at 14; C-terminal NH2) [SEQ ID NO: 16]	117	2.8
HXQGTFTSDLSKQKESRAAQLFIEWLKAXGPSSGAPPPS (Aib at 2; K(γE-x76) at 14; dAla at 29; C-terminal NH2) [SEQ ID NO: 204]	12.5	34.1
HXQGTFTSDLSKQKDSKAAQDFIEWLKSGGPSSGAPPPS (dSer at 2; K(γE-x53) at 14; C-terminal NH2) [SEQ ID NO: 173]	5.9	5.7
HXQGTFTSDLSKQKESLAAQDFIEWLKAGGPSSGAPPPS (dSer at 2; K(γE-x53) at 14; C-terminal NH2) [SEQ ID NO: 150]	35.5	6
HXQGTFTSDLSKQKDKRAAQLFIEWLKAXGPSSGAPPPS (Aib at 2; K(γE-x76) at 14; dAla at 29; C-terminal NH2) [SEQ ID NO: 212]	6.6	14.1
HXQGTFTSDLSKQKDEEAARLFIEWLKAGGPSSGAPPPS (dSer at 2; K(γE-x53) at 14; C-terminal NH2) [SEQ ID NO: 221]	9.2	1.5
HXQGTFTSDLSKQKEEEAAXDFIEWLKAGGPSSGAPPPS (dSer at 2; K(γE-x53) at 14; Aib at 20; C-terminal NH2) [SEQ ID NO: 18]	152	2.6
HXQGTFTSDLSKQKDKRRAQDFIEWLKAXGPSSGAPPPS (Aib at 2; K(γE-x70) at 14; dAla at 29; C-terminal NH2) [SEQ ID NO: 209]	1.9	5.4
HXQGTFTSDLSKQKDEEAARLFIEWLKAGGPSSGAPPPS (dSer at 2; K(γE-X70) at 14; C-terminal NH2) [SEQ ID NO: 222]	2.9	1.8
HXQGTFTSDLSKQKDSRRAQDFIEWLKAXGPSSGAPPPS (dSer at 2; K(γE-X70) at 14; dAla at 29; C-terminal NH2) [SEQ ID NO: 161]	2.4	5
HXQGTFTSDLSKQKEEEAAKDFIEWLKAGGPSSGAPPPS (dSer at 2; K(γE-x53) at 14; C-terminal NH2) [SEQ ID NO: 17]	93.1	1.7
HXQGTFTSDLSKQKESXAAQLFIEWLKAGGPSSGAPPPS (dSer at 2; K(γE-x53) at 14; Aib at 17; C-terminal NH2) [SEQ ID NO: 15]	176	6.6
HXQGTFTSDLSKQKDSKRAXDFIEWLKAGGPSSGAPPPS (dSer at 2; K(γE-x70) at 14; Aib at 20; C-terminal NH2) [SEQ ID NO: 196]	1.8	7.8
HXQGTFTSDLSKQKDKRAAQLFIEWLKAXGPSSGAPPPS (Aib at 2; K(γE-x70) at 14; dAla at 29; C-terminal NH2) [SEQ ID NO: 211]	26.4	15.5
H[Aib]QGTFTSDLSKQK([γGlu-X70])DEEAARLFIEWLKAGGPSSGAPPPS-NH2 (reading uncertain) [SEQ ID NO: 214]	16	4.2
H[Aib]QGTFTSDLSKQK([γGlu-x76])ESRAAQLFIEWLKAGGPSSGAPPPS-NH2 (reading uncertain) [SEQ ID NO: 203]	13.1	34.9
H[Aib]QGTFTSDLSKQK([γGlu-x70])DEEAAKLFIEWLKAGGPSSGAPPPS-NH2 (reading uncertain) [SEQ ID NO: 213]	59.1	2.7
